Like-named read-outs stand apart in the source and are kept apart here.
Columns and labels:
[1] = target: HeV and NiV F and G envelope glycoproteins (on effector cells); assay: cell-based or functional assay
[2] = target: HeV and NiV F and G envelope glycoproteins (on effector cells); assay: cell-based or functional assay; remark: listed apart in the source
[3] = target: T1, B4ECv3 (human, UniProt P54760 16-537); assay: biochemical assays; B4ECv3 on Ni-NTA agarose, 50 nM B2-AP, PNPP colorimetry
T1 construct: also called B4ECv3 protein
T1 sequence: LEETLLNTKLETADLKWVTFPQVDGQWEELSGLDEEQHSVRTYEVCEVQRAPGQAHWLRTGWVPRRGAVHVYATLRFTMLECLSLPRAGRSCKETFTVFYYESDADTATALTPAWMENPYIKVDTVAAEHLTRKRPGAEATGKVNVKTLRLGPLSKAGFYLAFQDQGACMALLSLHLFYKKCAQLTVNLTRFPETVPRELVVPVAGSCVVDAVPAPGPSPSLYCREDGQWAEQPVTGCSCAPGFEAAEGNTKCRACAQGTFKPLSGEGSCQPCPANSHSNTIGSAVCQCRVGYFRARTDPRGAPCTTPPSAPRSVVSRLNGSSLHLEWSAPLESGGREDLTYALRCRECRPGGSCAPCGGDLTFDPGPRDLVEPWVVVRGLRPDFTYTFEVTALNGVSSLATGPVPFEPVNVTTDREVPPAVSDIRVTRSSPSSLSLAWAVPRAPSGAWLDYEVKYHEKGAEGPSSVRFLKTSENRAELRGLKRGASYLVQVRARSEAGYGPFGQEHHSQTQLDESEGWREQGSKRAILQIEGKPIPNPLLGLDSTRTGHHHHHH

Q: With “Bovine Serum Albumin (from UniProt P02769 25-607)” as the molecule, how does the % fusion (cell fusion assay), 0.1 µg/ml inhibitor [1] read?
A: The % fusion (cell fusion assay), 0.1 µg/ml inhibitor was 112%.

Q: What about the % fusion (cell fusion assay), 1.0 µg/ml inhibitor [1] of the same molecule?
A: The % fusion (cell fusion assay), 1.0 µg/ml inhibitor was 112%.

Q: And the % fusion (cell fusion assay), 10 µg/ml inhibitor [1]?
A: Its % fusion (cell fusion assay), 10 µg/ml inhibitor is 124%.

Q: What about the % fusion (cell fusion reporter gene assay, beta-Gal), 10 µg/ml protein [1] of the same molecule?
A: The % fusion (cell fusion reporter gene assay, beta-Gal), 10 µg/ml protein was 126%.

Q: For “Inactivated Human EphrinB2-Ec (from UniProt P52799 28-225) (ligand)”, which % fusion (cell fusion assay), 0.1 µg/ml inhibitor [1] is on record?
A: The % fusion (cell fusion assay), 0.1 µg/ml inhibitor was 103%.

Q: What about the % fusion (cell fusion assay), 1.0 µg/ml inhibitor [1] of the same molecule?
A: The % fusion (cell fusion assay), 1.0 µg/ml inhibitor was 104%.

Q: What about the % fusion (cell fusion assay), 10 µg/ml inhibitor [1] of the same molecule?
A: Its % fusion (cell fusion assay), 10 µg/ml inhibitor is 77.3%.

Q: What about the % fusion (cell fusion reporter gene assay, beta-Gal), 10 µg/ml protein [1] of the same molecule?
A: The % fusion (cell fusion reporter gene assay, beta-Gal), 10 µg/ml protein was 83.3%.

Q: Which % fusion (cell fusion assay), 0.1 µg/ml inhibitor [1] does the source give for “Murine EphrinB2-Ec-Fc (from UniProt P52800 29-232) (Fc fusion)” here?
A: Its % fusion (cell fusion assay), 0.1 µg/ml inhibitor is 70.7%.

Q: And the % fusion (cell fusion assay), 1.0 µg/ml inhibitor [1]?
A: Its % fusion (cell fusion assay), 1.0 µg/ml inhibitor is 1.87%.

Q: And the % fusion (cell fusion assay), 10 µg/ml inhibitor [1]?
A: The % fusion (cell fusion assay), 10 µg/ml inhibitor was 2.93%.

Q: What about the % fusion (cell fusion reporter gene assay, beta-Gal), 10 µg/ml protein [1] of the same molecule?
A: Its % fusion (cell fusion reporter gene assay, beta-Gal), 10 µg/ml protein is 8.33%.

Q: Which % fusion (cell fusion assay), 0.1 µg/ml inhibitor [1] does the source give for “human EphrinB2EC-Human serum albumin fusion protein (from UniProt P52799 28-229)” here?
A: The % fusion (cell fusion assay), 0.1 µg/ml inhibitor was 85.3%.

Q: And the % fusion (cell fusion assay), 1.0 µg/ml inhibitor [1]?
A: The % fusion (cell fusion assay), 1.0 µg/ml inhibitor was 115%.

Q: What about the % fusion (cell fusion assay), 10 µg/ml inhibitor [1] of the same molecule?
A: Its % fusion (cell fusion assay), 10 µg/ml inhibitor is 64%.

Q: What about the % fusion (cell fusion reporter gene assay, beta-Gal), 10 µg/ml protein [1] of the same molecule?
A: The % fusion (cell fusion reporter gene assay, beta-Gal), 10 µg/ml protein was 54.8%.

B1: Murine EphrinB1-EC-Fc (Fc fusion)
chain: ATPLAKNLEPVSWSSLNPKFLSGKGLVIYPKIGDKLDIICPRAEAGRPYEYYKLYLVRPEQAAACSTVLDPNVLVTCNKPHQEIRFTIKFQEFSPNYMGLEFKKYHDYYITSTSNGSLEGLENREGGVCRTRTMKIVMKVGQDPNAVTPEQLTTSRPSKESDNTVKTATQAPGRGSQGDSDGKHETVNQEEKSGPGAGGGGSGDSDSFFNSK
Q: Which % fusion (cell fusion assay), 0.1 µg/ml inhibitor [2] does the source give for B1 here?
A: The % fusion (cell fusion assay), 0.1 µg/ml inhibitor was 109%.

Q: What about the % fusion (cell fusion assay), 1.0 µg/ml inhibitor [2] of the same molecule?
A: Its % fusion (cell fusion assay), 1.0 µg/ml inhibitor is 133%.

Q: And the % fusion (cell fusion assay), 10 µg/ml inhibitor [2]?
A: The % fusion (cell fusion assay), 10 µg/ml inhibitor was 147%.

Q: And the % fusion (cell fusion reporter gene assay, beta-Gal), 10 µg/ml protein [2]?
A: The % fusion (cell fusion reporter gene assay, beta-Gal), 10 µg/ml protein was 140%.

B2: Murine EphrinA2-EC-Fc (Fc fusion)
chain: RNEDPARANADRYAVYWNRSNPRFQVSAVGDGGGYTVEVSINDYLDIYCPHYGAPLPPAERMERYILYMVNGEGHASCDHRQRGFKRWECNRPAAPGGPLKFSEKFQLFTPFSLGFEFRPGHEYYYISATPPNLVDRPCLRLKVYVRPTNETLYEAPEPIFTSN
Q: Which % fusion (cell fusion assay), 0.1 µg/ml inhibitor [2] does the source give for B2 here?
A: The % fusion (cell fusion assay), 0.1 µg/ml inhibitor was 81.3%.

Q: And the % fusion (cell fusion assay), 1.0 µg/ml inhibitor [2]?
A: Its % fusion (cell fusion assay), 1.0 µg/ml inhibitor is 104%.

Q: And the % fusion (cell fusion assay), 10 µg/ml inhibitor [2]?
A: Its % fusion (cell fusion assay), 10 µg/ml inhibitor is 112%.

Q: What about the % fusion (cell fusion reporter gene assay, beta-Gal), 10 µg/ml protein [2] of the same molecule?
A: The % fusion (cell fusion reporter gene assay, beta-Gal), 10 µg/ml protein was 117%.

B3: EphrinB2EC-AP from pAPTag2 (ligand)
chain: IVLEPIYWNSSNSKFLPGQGLVLYPQIGDKLDIICPKVDSKTVGQYEYYKVYMVDKDQADRCTIKKENTPLLNCAKPDQDIKFTIKFQEFSPNLWGLEFQKNKDYYIISTSNGSLEGLDNQEGGVCQTRAMKILMKVGQDASSAGSTRNKDPTRRPELEAGTNGRSSTTSPFVKPNPGSSTDGNSAGHSGNNILGSEGSSGIIPVEEENPDFWNREAAEALGAAKKLQPAQTAAKNLIIFLGDGMGVSTVTAARILKGQKKDKLGPEIPLAMDRFPYVALSKTYNVDKHVPDSGATATAYLCGVKGNFQTIGLSAAARFNQCNTTRGNEVISVMNRAKKAGKSVGVVTTTRVQHASPAGTYAHTVNRNWYSDADVPASARQEGCQDIATQLISNMDIDVILGGGRKYMFPMGTPDPEYPDDYSQGGTRLDGKNLVQEWLAKRQGARYVWNRTELMQASLDPSVTHLMGLFEPGDMKYEIHRDSTLDPSLMEMTEAALRLLSRNPRGFFLFVEGGRIDHGHHESRAYRALTETIMFDDAIERAGQLTSEEDTLSLVTADHSHVFSFGGYPLRGSSIFGLAPGKARDRKAYTVLLYGNGPGYVLKDGARPDVTESESGSPEYRQQSAVPLDEETHAGEDVAVFARGPQAHLVHGVQEQTFIAHVMAFAACLEPYTACDLAPPAGTTDAAHPG
notes: also called B2-AP; B2ECAP reagent
Q: Does B3 bind [3]?
A: Result: binds

From US20070218061A1 (VASGENE THERAPEUTICS, published 2007)
